Experimental data: patent publication US20240352156A1 (BIOGRAPH 55, published 2024)

T1: CD19 (antigen in solution, Octet assays) (human, UniProt P15391 20-291, limits assumed)
T1 construct: also called Cluster of Differentiation 19; B4
T1 sequence (looked up): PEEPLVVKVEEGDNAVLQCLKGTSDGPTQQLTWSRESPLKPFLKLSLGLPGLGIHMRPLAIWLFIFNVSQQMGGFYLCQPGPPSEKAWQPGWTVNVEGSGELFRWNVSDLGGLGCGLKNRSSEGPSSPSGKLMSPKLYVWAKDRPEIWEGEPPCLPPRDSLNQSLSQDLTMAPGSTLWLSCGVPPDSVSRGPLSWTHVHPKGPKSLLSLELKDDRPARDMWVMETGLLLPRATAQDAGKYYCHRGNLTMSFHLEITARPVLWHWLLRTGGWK

B1: 851A = anti-CD19 3C10 (antibody, V domains shown)
VH: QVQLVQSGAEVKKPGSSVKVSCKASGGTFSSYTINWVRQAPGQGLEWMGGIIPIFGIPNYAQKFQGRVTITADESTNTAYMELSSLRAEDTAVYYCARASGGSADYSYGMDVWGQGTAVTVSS
VL: DIQMTQSPSSLSASVGDRVTITCRASQGISSWLAWYQQKPEKAPKSLIYAASSLQSGVPSRFSGSGSGTDFTLTISSLQPEDFATYYCQQYKRYPYTFGQGTKLEIKR
notes: captured by anti-human IgG Fc
B2: 851C = anti-CD38 003 heavy chain & anti-CD19 3C10 light chain (antibody, V domains shown)
VH: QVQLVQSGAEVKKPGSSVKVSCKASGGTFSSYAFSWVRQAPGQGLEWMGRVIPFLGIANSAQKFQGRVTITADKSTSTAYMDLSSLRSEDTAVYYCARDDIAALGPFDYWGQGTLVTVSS
VL: B1 VL

Experiments:
[1] = molecular target: T2, CD38 (antigen in solution, Octet assays) (human, UniProt P28907 43-300, limits assumed); experiment: BLI (OctetRed96), antibody on anti-hIgG Fc capture sensor
T2 construct: also called Cluster of Differentiation 38; ADPRC1
Method: (§1) The binding affinities of parental and bispecific antibodies were determined using bio-layer interferometry. Binding experiments were performed on OctetRed96 at 25° C. using an assay Buffer consisting of 0.1% BSA, 1×PBS, 0.02% Tween-20, 0.05% NaN3. The antibodies were loaded onto Anti-hIgGFc Capture biosensors for 300 seconds. The ligand-loaded sensors were dipped into a series dilution (starting at 300 nM: two-fold series dilution for CD19 and three-fold series dilution for CD38) of the antigens for association (200 seconds for CD19 and 150 seconds for CD38) followed by dissociation (600 seconds for CD19 and 400 seconds for CD38). Kinetic constants were calculated using a monovalent (1:1) binding model.

[2] = molecular target: T3, CD38 on cells (CD38-transfected HEK293, Daudi, REH) (human, UniProt P28907 1-300); experiment: flow cytometry on CD38-transfected HEK293 cells, MFI against test article concentration
T3 construct: whole, on cells; also called HEK293-CD38

[3] = molecular target: T1, CD19 (antigen in solution, Octet assays); experiment: BLI (OctetRed96), antibody on anti-hIgG Fc capture sensor
Method: as §1

Row | Binder | binding result [1] | binding result [2] | binding result [3]
1 | B1 | no binding (tested: antigen dilutions starting at 300 nM) | no binding (tested: 133 nM) | –
2 | B2 | – | – | no binding (tested: antigen dilutions starting at 300 nM)
